Molecular target: Gab2 608-620 (Homo sapiens), Q9UQC2
Experiment: flow

Kd	Binder
1.7 nM	SHP2 N-SH2, Q06124 (protein) WFHPNITGVEAENLLLTRGVDGSFLARPSKSNPGDFALSVRRNGAVTHIKIQNTGDYYDLYGGEKFATLAELVQYYMEHHGQLKEKNGDVIELKYPL
5.3 nM	SHP2 N-SH2, Q06124 (protein) WFHPNITGVEAENLLLTRGVDGSFLARPSKSNPGDFSLSVRRNGAVTHIKIQNTGDYYDLYGGEKFATLAELVQYYMEHHGQLKEKNGDVIELKYPL

From PMC7013464
